Reference: article PMC3496059 (Structure (London, England : 1993), 2012)

Target: NSUN4 (residues 26–384) (human, UniProt Q96CB9 26-384)
Assay: ITC

Chain of NSUN4 (residues 26–384) (Q96CB9 26-384): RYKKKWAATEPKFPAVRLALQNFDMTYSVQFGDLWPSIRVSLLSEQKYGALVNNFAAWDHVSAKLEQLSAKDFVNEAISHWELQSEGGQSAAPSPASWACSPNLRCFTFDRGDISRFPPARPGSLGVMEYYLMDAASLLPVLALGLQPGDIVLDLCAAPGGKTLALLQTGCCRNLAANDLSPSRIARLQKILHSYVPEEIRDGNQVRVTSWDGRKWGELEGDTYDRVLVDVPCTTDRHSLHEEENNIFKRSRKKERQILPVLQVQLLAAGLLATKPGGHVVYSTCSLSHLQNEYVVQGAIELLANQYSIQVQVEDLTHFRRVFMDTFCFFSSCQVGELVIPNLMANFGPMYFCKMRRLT

B1: MTERF4 (residues 66–332) (domain or fragment, human, UniProt Q7Z6M4 66-332, looked up)
chain: EPECRRNLVQCLLEKQGTPVVQGSLELERVMSSLLDMGFSNAHINELLSVRRGASLQQLLDIISEFILLGLNPEPVCVVLKKSPQLLKLPIMQMRKRSSYLQKLGLGEGKLKRVLYCCPEIFTMRQQDINDTVRLLKEKCLFTVQQVTKILHSCPSVLREDLGQLEYKFQYAYFRMGIKHPDIVKSEYLQYSLTKIKQRHIYLERLGRYQTPDKKGQTQIPNPLLKDILRVSEAEFLARTACTSVEEFQVFKKLLAREEEESESSTS
  Kd: 13.3 ± 0.4 nM
  dH: -11 ± 0.22 kcal/mol
  stoichiometry N: 1.08 ± 0.02
